Measurements taken from article PMC12255788.

Target: His6-SUMO-NOT7 (human) (UniProt Q9UIV1)
Test: mass photometry

Sequence of His6-SUMO-NOT7 (human) (Q9UIV1 whole entry): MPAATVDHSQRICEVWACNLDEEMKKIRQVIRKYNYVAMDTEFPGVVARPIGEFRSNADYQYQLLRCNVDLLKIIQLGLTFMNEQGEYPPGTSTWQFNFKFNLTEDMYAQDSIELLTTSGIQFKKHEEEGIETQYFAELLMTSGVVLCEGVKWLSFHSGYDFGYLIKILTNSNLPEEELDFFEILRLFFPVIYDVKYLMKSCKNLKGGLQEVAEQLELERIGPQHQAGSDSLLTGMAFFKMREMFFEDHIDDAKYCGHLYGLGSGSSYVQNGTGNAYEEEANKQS

Substance: His6-PieF (from UniProt A0AAN5PHN6) (natural protein)
- stoichiometry N: 1
